Experimental data: patent US20160185865A1 (Dana-Farber, published 2016)
Positions count from the first letter of the chain named. In names and notes the source's numbering stands.

T1: human CC chemokine receptor 4 (CCR4) (human, UniProt P51679 1-360)
T1 construct: whole, on cells; also called hCCR4
T1 sequence (looked up): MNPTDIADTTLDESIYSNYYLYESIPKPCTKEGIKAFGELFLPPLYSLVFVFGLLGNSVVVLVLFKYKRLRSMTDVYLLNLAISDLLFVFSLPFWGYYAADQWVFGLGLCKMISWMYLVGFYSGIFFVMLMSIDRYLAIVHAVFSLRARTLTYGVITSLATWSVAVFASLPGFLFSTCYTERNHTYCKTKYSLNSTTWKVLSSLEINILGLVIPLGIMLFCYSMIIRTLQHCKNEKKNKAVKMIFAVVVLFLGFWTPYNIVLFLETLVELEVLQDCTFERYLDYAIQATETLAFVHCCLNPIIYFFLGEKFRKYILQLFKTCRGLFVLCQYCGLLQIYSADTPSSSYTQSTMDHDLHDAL

B1: h1567 VL-CDR3 mutant M1 (H105Q) (Fc fusion, not shown: a dimerising Fc or GST)
scFv: QVQLVQSGAEVKKPGASVKVSCKASGYTFASYYMHWMRQAPGQGLEWIGWINPGNVNTKYNEKFKGRATLTVDTSTNTAYMELSSLRSEDTAVYYCARSTYYRPLDYWGQGTLVTVSSGGGGSGGGGSGGGGSDIVMTQSPDSLAVSLGERATINCKSSQSILYSSNQKNYLAWYQQKPGQSPKLLIYWASTRESGVPDRFSGSGSGTDFTLTISSLQAEDVAVYYCQQYLSSYTFGQGTKLEIK
B2: Antibody 2-3 scFv-Fc (Fc fusion, not shown: a dimerising Fc or GST)
scFv: B1 scFv with Y32A, Y33W, Q228H, L231M
notes: also called Ab2-3 scFv-Fc; Mab 2-3
B3: mAb2-3 (Ab2-3IgG) (antibody, V domains shown)
VH: QVQLVQSGAEVKKPGASVKVSCKASGYTFASAWMHWMRQAPGQGLEWIGWINPGNVNTKYNEKFKGRATLTVDTSTNTAYMELSSLRSEDTAVYYCARSTYYRPLDYWGQGTLVTVSS
VL: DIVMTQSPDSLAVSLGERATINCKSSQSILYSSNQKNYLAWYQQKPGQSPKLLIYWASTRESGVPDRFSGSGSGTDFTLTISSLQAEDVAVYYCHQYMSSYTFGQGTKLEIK
notes: IgG form made by cloning VH and VL into the TCAE5.3 vector (human IgG1); also called APC-labeled mAb2-3
B4: KW0761 (humanized KM2760 antibody) (antibody, V domains shown)
VH: EVQLVESGGDLVQPGRSLRLSCAASGFIFSNYGMSWVRQAPGKGLEWVATISSASTYSYYPDSVKGRFTISRDNAKNSLYLQMNSLRVEDTALYYCGRHSDGNFAFGYWGQGTLVTVSS
VL: DVLMTQSPLSLPVTPGEPASISCRSSRNIVHINGDTYLEWYLQKPGQSPQLLIYKVSNRFSGVPDRFSGSGSGTDFTLKISRVEAEDVGVYYCFQGSLLPWTFGQGTKVEIK

Tests used:
[1] = target: T1, human CC chemokine receptor 4 (CCR4); test: FACS titration (GMFI), 0 to 100 µg/mL in two-fold steps; cells not named in the legend
[2] = target: T1, human CC chemokine receptor 4 (CCR4); test: FACS, CCR4+ Mac-1 cells, dose dependent binding curve
[3] = target: T1, human CC chemokine receptor 4 (CCR4); test: binding curve of FIG. 20B; cells not given

Binder | EC50 [3] | other results
B1 | – | EC50 (read off the curve) [1]: ~0.5 µg/mL
B2 | – | EC50 [2]: 1.39 nM
B3 | 0.35 nM | –
B4 | 2.19 nM | –
